Laboratory results taken from paper PMC9879285.
Several values for one entry are separate records, joined by “and”; a condition that tells them apart may be missing. Identical values can stand only once.

Molecular target: V2E FP_HM (HIV gp41 ectodomain construct FP_HM with the V2E mutation) (HIV (HXB2 laboratory strain))
Experiment: SEC

Q: Which stoichiometry N does the source give for “V2E FP_HM (HIV gp41 ectodomain construct FP_HM with the V2E mutation) (domain or fragment)” here?
A: 3 and 6
